Test results: patent US20210386836

Target: C3a, P01024
Sequence (P01024 672-748): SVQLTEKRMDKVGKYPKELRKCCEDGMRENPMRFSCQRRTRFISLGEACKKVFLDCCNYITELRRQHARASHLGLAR

B1: PrtISS-HT (protein)
chain: MRKKWVATAIIALASGSTVFLSQTSSVEAAIGETSVQNVKVSVAKNESDSQKFNNSQNLEQKTPQAAAANQNGSQVQNDHTETQLQNQQTTQSQVTQAHTEENNASSIPEPANQADHVKGNVQSAWDQGYKGQNTVVAVIDSGADTSHKDFQTMPSNPKLKQEDVQSKIDQQGYGKYVNEKFPYVYNYADRDNDYIKSDDNNQXNDSPHGQHVSGIIAADGHPEGDQQYVVGVAPEAQLMQLRVFGQFSDEKTDDVARAIYDATNLGADVIQMSLGQGVADQQLTNIEQKAVQYAIDHGVFVSISASNNGNSASVDNPSKVTAKGYGSGSEAGNYEPLNSGTVANPGASKNALTVAAETSGTGKDSDMASFSSWGPLSDFSLKPDLSAPGYQVVSTVNDNQYQTMSGTSMAGPFAAGSAALVIQRLKQTNPELKGAELVAATKALLMNSAKVQTQNGYTTPVSPRRQGAGQIDVGAATANPVYVTAADGTSSLSLRQVDEKTTFTLTFHNLTDQEQSYSFNDLGGGYTEQRDPDSGVFHEVQLAGAHVNGVGNFTLAPKEVKDLQYTLDLQGLNKNQPVEGWLHFTNDKDKSTVVVPYLAYYGDLTSENVFDQNANEEKPDIQGNRFVNENNYPLGVTDQESLKQLVNVDSDYNWQEVAKLYESGKVAFSPNDDHQSDLIKPYAYLKQNVKDLKVEILDAKGNVVRVVSDVQGVDKSYDESGVTKDASLSVSMRDNPDAFEWDGKVYDTKTGQMVTAPDGQYTYRFVATLWNEGPNQKQTADFPVVVDTQAPSLSVKYDSATHTLSGNYEDKGAGFTDYSYVTVQVNDKVFGYKLNEGESGFDNSEKTKGHFNFTLSSDALDALSGSLNKVSVTLSDVANNTTVKTVDVPAVKDQPAVSVWNATEGVEFNKNSKDYNKENDTYTLYGSAAQDFYLNGALVQVRDGKYEVPVKTTTQDLVFSTDQAGKNVLKSFTTFTPKAFFNWQNVDGFDGNFGVNIYSVKTNDPNNAVVQAAVPLGKNVKAYAQDYFTGEVYKGQVENGVATFHVHTSINQGEDGIFKRALLTGWSEVDGPAYNDKQVTSKAGVASSNHLGVYYTTDKVNRKVYTDRADLGVDVQDEAADLSSFGPTAYPGHALADLTTRTDPNPAIHFDYLNDNDTTRFGQNAVTDGYYDSVTKKFTVTGHVDPEVKSLTVLGDSSDENAPQNQVKLGKDGKFSFSFTTENVGQRPVAYIYTDQNGQKVRGTLNVVLDTVAPTLNVDQVNGNELEVKTNNPLFKLSGVVNDNLDGYRLYVNGNNIYREFLNSGYNKLAGLNTDGTDVNPYGPHNFEESFNLNDDNNQPTTHVFTIYVVDQVGNKVEKKIAVNYDPDYVAPRHHHHHH
modifications: not fully specified; X: residue not identified in the source
proteolytic degradation assay (SDS-PAGE): displayed activity against hC3a
